Data on four molecules can be found in publication PMC2899887 (Biochemistry, 2010).

As usually defined, the Kd is the concentration at which binding is half-saturated.

Experiment [1] has as its target EGFR 647-654 (Homo sapiens) (UniProt P00533). Put plainly: NMR. As to conditions: cited from earlier work.
Another experiment concerns the target T1, Nck2_70-168 (human, UniProt O43639 70-168).
T1 sequence (looked up): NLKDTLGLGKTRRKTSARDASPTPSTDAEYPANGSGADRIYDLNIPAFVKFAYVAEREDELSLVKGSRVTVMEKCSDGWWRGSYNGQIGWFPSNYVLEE
The experiment is described as follows: NMR titration.

Experiment [2] concerns the target T2, isolated 2nd SH3 domain (SH3.2) of human Nck2, residues 112-168 (human, UniProt O43639 112-168).
T2 sequence (looked up): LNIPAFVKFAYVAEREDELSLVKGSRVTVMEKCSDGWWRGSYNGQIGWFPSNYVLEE
The experiment is described as follows: NMR titration.

Where no end group is shown, it is not given here.

Consider Nck1 SH3.2 (from UniProt P16333), for which the Kd in experiment [1] was 80 µM.
As for EVPVPPPVPPRR-NH2 [SOS1 peptide (1146-EVPVPPPVPPRR-1157)], in the experiment with Nck2_70-168, the “fold increase of Kd against the isolated SH3.2 domain” value turned out to be 4.7 fold.
On the same count and under the same terms, in the case of QDKPPAPPMRN-NH2 [Pak1 peptide (9-QDKPPAPPMRN-19)] it was 4.7 fold.
As to LKDTLGLGKTRRKTSARDAS-NH2 [Nck2_71-90 peptide], the dissociation constant (Kd) in experiment [2] is about 1700 µM.
